Values of other authors in publication PMC4581962.
pKd: −log10 of the molar value.

Biological target: IL-6Rα (Homo sapiens) (UniProt P08887)
UniProt P08887, sequence (P08887 20-355): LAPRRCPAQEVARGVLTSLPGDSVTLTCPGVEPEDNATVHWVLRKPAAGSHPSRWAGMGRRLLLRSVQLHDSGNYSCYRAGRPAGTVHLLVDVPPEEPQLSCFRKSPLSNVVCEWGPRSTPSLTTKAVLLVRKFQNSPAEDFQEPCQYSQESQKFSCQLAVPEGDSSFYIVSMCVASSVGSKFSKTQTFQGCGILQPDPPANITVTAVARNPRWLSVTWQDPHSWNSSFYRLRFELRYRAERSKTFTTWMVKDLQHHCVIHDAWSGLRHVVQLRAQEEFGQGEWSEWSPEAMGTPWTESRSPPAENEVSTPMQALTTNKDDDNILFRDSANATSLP

Substance: IL-6 (from UniProt P05231)
- pKd: 8.05
